Assay results published in publication PMC10920075 (Nature structural & molecular biology, 2023).

Target: the molecule itself
Assay: cryo-EM structure

B1: DNA polymerase γ accessory subunit PolγB (natural protein, human, UniProt Q9UHN1 26-485, looked up)
chain: DAGQPELLTERSSPKGGHVKSHAELEGNGEHPEAPGSGEGSEALLEICQRRHFLSGSKQQLSRDSLLSGCHPGFGPLGVELRKNLAAEWWTSVVVFREQVFPVDALHHKPGPLLPGDSAFRLVSAETLREILQDKELSKEQLVAFLENVLKTSGKLRENLLHGALEHYVNCLDLVNKRLPYGLAQIGVCFHPVFDTKQIRNGVKSIGEKTEASLVWFTPPRTSNQWLDFWLRHRLQWWRKFAMSPSNFSSSDCQDEEGRKGNKLYYNFPWGKELIETLWNLGDHELLHMYPGNVSKLHGRDGRKNVVPCVLSVNGDLDRGMLAYLYDSFQLTENSFTRKKNLHRKVLKLHPCLAPIKVALDVGRGPTLELRQVCQGLFNELLENGISVWPGYLETMQSSLEQLYSKYDEMSILFTVLVTETTLENGLIHLRSRDTTMKEMMHISKLKDFLIKYISSAKNV
stoichiometry N: 2
